# Test results from patent publication US6333311, “Useful properties of human lactoferrin and variants thereof” (Pharming, dated 2001).
# B1: human lysozyme (enzyme)
# chain: KVFERCELARTLKRLGMDGYRGISLANWMCLAKWESGYNTRATNYNAGDRSTDYGIFQINSRYWCNDGKTPGAVNACHLSCSALLQDNIADAVACAKRVVRDPQGIRAWVAWRNRCQNRDVRQYVQGCGV
# B2: natural human lactoferrin (ligand)
# chain: GRRRRSVQWCAVSQPEATKCFQWQRNMRKVRGPPVSCIKRDSPIQCIQAIAENRADAVTLDGGFIYEAGLAPYKLRPVAAEVYGTERQPRTHYYAVAVVKKGGSFQLNELQGLKSCHTGLRRTAGWNVPIGTLRPFLNWTGPPEPIEAAVARFFSASCVPGADKGQFPNLCRLCAGTGENKCAFSSQEPYFSYSGAFKCLRDGAGDVAFIRESTVFEDLSDEAERDEYELLCPDNTRKPVDKFKDCHLARVPSHAVVARSVNGKEDAIWNLLRQAQEKFGKDKSPKFQLFGSPSGQKDLLFKDSAIGFSRVPPRIDSGLYLGSGYFTAIQNLRKSEEEVAARRARVVWCAVGEQELRKCNQWSGLSEGSVTCSSASTTEDCIALVLKGEADAMSLDGGYVYTAGKCGLVPVLAENYKSQQSSDPDPNCVDRPVEGYLAVAVVRRSDTSLTWNSVKGKKSCHTAVDRTAGWNIPMGLLFNQTGSCKFDEYFSQSCAPGSDPRSNLCALCIGDEQGENKCVPNSNERYYGYTGAFRCLAENAGDVAFVKDVTVLQNTDGNNNEAWAKDLKLADFALLCLDGKRKPVTEARSCHLAMAPNHAVVSRMDKVERLKQVLLHQQAKFGRNGSDCPDKFCLFQSETKNLLFNDNTECLARLHGKTTYEKYLGPQYVAGITNLKKCSTSPLLEACEFLRK
# Key:
# [1] = target: B2; experiment: solid-phase ligand binding ELISA, hLZ-coated plates
# human transferrin = human transferrin (human, UniProt P02787); experiment: competitive ELISA: hTF as competitor of 12.5 nM biotinylated hLF on hLZ-coated plates
# human lysozyme = target: B1; experiment: competitive ELISA: unlabelled competitor against 12.5 nM biotinylated hLF on hLZ-coated plates
binding result [1],binding result (human transferrin),IC50 (human lysozyme),Binder
binds,no binding,–,B1
–,–,11.2 nM,B2
–,–,15.4 nM,iron-saturated human lactoferrin (ligand) GRRRRSVQWCAVSQPEATKCFQWQRNMRKVRGPPVSCIKRDSPIQCIQAIAENRADAVTLDGGFIYEAGLAPYKLRPVAAEVYGTERQPRTHYYAVAVVKKGGSFQLNELQGLKSCHTGLRRTAGWNVPIGTLRPFLNWTGPPEPIEAAVARFFSASCVPGADKGQFPNLCRLCAGTGENKCAFSSQEPYFSYSGAFKCLRDGAGDVAFIRESTVFEDLSDEAERDEYELLCPDNTRKPVDKFKDCHLARVPSHAVVARSVNGKEDAIWNLLRQAQEKFGKDKSPKFQLFGSPSGQKDLLFKDSAIGFSRVPPRIDSGLYLGSGYFTAIQNLRKSEEEVAARRARVVWCAVGEQELRKCNQWSGLSEGSVTCSSASTTEDCIALVLKGEADAMSLDGGYVYTAGKCGLVPVLAENYKSQQSSDPDPNCVDRPVEGYLAVAVVRRSDTSLTWNSVKGKKSCHTAVDRTAGWNIPMGLLFNQTGSCKFDEYFSQSCAPGSDPRSNLCALCIGDEQGENKCVPNSNERYYGYTGAFRCLAENAGDVAFVKDVTVLQNTDGNNNEAWAKDLKLADFALLCLDGKRKPVTEARSCHLAMAPNHAVVSRMDKVERLKQVLLHQQAKFGRNGSDCPDKFCLFQSETKNLLFNDNTECLARLHGKTTYEKYLGPQYVAGITNLKKCSTSPLLEACEFLRK
